Measured values published in patent publication US20150005474A1 (GLYCOTOPE, published 2015).

Biological target: MUC1 (polymorphic epithelial mucin) on human tumor cells (human, UniProt P15941 24-1255)
Assay: cell binding test with radiolabelled antibody on K562 cells, Scatchard analysis

Chain of MUC1 (polymorphic epithelial mucin) on human tumor cells (P15941 24-1097, chain 1 of 2): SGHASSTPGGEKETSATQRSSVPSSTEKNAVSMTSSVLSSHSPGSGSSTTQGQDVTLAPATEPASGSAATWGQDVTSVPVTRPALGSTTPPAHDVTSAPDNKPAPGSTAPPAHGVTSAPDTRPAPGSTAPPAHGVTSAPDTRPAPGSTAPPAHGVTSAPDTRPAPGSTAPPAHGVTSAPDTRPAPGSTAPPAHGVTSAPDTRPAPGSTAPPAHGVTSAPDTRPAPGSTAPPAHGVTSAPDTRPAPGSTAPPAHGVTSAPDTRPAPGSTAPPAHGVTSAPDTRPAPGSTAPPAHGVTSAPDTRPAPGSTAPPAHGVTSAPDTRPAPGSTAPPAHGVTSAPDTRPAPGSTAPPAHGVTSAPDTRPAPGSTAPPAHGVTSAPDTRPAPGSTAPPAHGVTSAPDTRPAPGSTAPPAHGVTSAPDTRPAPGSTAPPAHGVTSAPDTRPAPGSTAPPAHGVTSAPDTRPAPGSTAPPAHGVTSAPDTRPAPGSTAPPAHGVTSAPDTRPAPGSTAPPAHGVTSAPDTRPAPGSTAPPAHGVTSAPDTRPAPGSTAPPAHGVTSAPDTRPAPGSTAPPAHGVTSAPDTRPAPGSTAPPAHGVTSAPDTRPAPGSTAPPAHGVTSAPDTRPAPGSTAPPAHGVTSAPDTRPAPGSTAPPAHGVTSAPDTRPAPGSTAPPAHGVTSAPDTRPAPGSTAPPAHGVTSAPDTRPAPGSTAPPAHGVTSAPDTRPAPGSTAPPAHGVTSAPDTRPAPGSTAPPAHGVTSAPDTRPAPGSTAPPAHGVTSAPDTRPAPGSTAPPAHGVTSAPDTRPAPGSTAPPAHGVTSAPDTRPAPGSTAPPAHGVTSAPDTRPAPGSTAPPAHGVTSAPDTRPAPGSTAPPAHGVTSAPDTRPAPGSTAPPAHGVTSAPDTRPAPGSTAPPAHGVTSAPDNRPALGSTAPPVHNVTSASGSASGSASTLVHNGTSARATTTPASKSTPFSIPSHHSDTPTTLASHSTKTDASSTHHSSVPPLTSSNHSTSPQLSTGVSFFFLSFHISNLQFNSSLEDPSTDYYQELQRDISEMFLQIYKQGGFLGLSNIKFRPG
Chain of MUC1 (polymorphic epithelial mucin) on human tumor cells (P15941 1098-1255, chain 2 of 2): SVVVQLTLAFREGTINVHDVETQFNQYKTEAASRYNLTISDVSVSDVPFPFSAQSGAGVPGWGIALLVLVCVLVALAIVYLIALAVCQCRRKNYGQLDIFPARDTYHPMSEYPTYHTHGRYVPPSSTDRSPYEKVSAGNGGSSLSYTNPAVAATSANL

B1: HMFG-1 (antibody, V domains shown)
VH: QVQLVQSGAEVKKPGASVKVSCKASGYTFSAYWIEWVRQAPGKGLEWVGEILPGSNNSRYNEKFKGRVTVTRDTSTNTAYMELSSLRSEDTAVYYCARSYDFAWFAYWGQGTLVTVSS
VL: DIQMTQSPSSLSASVGDRVTITCKSSQSLLYSSNQKIYLAWYQQKPGKAPKLLIYWASTRESGVPSRFSGSGSGTDFTFTISSLQPEDIATYYCQQYYRYPRTFGQGTKVEIKR
B1 was tested. Which Ka did it give?
Its Ka is 2.7e+08 M⁻¹.
